Test results from PMC4066765, “Insights into how Spt5 functions in transcription elongation and repressing transcription coupled DNA repair” (Nucleic Acids Research, 2014).

Biological target: T1, Rpb1, largest subunit of RNA polymerase II (S. cerevisiae, UniProt P04050 1-1733)
T1 construct: Rpb1, largest subunit of RNA polymerase II, S. cerevisiae; detected and immunoprecipitated with antibody 8WG16; Stands in the cell as part of the 12-subunit RNAP II; in the co-IP it is the bait (8WG16); also called RNAP II; core RNAP II (immunoprecipitated through Rpb1); source: endogenous, S. cerevisiae (BJ5465 derivatives); in living cells (cross-linking) and in solubilised chromatin fraction …
T1 sequence (P04050 whole entry): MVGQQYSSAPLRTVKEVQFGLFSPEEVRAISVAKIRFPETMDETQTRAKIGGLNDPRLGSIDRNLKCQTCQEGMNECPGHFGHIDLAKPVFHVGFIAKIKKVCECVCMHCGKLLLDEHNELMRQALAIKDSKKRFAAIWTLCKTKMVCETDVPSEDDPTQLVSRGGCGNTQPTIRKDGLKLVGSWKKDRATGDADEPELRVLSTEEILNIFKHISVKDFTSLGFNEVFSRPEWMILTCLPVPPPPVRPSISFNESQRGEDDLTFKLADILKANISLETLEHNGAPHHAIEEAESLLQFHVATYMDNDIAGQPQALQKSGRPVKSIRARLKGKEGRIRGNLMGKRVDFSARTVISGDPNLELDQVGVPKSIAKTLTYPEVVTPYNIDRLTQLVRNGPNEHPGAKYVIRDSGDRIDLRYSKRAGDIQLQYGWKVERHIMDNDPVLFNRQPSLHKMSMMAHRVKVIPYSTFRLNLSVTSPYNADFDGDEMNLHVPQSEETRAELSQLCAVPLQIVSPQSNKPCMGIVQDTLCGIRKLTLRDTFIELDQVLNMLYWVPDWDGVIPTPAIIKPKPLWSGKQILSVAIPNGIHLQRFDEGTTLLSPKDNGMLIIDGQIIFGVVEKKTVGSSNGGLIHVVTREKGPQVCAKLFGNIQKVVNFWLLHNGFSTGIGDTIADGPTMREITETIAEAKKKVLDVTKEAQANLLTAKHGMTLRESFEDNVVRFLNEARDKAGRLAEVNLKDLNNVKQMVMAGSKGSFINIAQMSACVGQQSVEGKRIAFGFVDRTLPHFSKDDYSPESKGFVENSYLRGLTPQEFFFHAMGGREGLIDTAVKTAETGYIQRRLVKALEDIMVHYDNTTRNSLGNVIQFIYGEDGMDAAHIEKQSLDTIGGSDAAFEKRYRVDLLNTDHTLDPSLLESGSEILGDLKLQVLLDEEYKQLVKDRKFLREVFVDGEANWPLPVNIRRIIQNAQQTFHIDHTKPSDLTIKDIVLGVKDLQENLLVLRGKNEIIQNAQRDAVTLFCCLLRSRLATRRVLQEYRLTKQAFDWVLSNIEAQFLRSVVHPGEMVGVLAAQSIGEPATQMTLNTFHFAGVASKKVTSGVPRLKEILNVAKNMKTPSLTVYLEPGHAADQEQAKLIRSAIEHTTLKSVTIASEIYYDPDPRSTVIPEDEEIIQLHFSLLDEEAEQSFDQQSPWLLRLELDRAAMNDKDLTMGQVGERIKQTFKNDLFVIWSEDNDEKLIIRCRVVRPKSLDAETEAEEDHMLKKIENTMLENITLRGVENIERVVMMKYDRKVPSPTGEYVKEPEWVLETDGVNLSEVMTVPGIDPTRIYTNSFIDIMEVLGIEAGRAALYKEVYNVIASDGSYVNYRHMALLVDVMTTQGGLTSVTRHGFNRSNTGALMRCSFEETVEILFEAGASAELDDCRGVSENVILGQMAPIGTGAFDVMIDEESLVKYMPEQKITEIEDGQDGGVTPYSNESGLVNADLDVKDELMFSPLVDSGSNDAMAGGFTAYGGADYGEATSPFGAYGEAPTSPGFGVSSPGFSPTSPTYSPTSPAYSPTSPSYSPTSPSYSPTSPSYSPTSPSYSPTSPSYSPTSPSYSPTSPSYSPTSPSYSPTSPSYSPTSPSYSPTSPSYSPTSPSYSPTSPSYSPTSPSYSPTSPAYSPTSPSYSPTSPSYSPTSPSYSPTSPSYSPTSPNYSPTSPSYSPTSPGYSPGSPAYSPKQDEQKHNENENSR
Assay: co-IP; chromatin fraction of log phase yeast cells solubilised by sonication in 50 mM HEPES pH 7.5, 140 mM NaCl, 1% Triton X-100, 0.1% sodium deoxycholate, 1 mM EDTA, 0.1% SDS; immunoprecipitated with 4 μg anti-Rpb1 8WG16; blots with 8WG16, 2Y14 and anti-Myc; cells expressing full-length, KOW4-deleted or KOW4-5-deleted Spt5
Settings: partners not purified

- fold reduction of co-immunoprecipitated Rpb4 in cells with KOW4-5-deleted Spt5 against cells with full-length Spt5: > 2 fold
B1: Rpb4 (endogenous) (natural protein, S. cerevisiae, UniProt P20433 1-221, looked up)
chain: MNVSTSTFQTRRRRLKKVEEEENAATLQLGQEFQLKQINHQGEEEELIALNLSEARLVIKEALVERRRAFKRSQKKHKKKHLKHENANDETTAVEDEDDDLDEDDVNADDDDFMHSETREKELESIDVLLEQTTGGNNKDLKNTMQYLTNFSRFRDQETVGAVIQLLKSTGLHPFEVAQLGSLACDTADEAKTLIPSLNNKISDDELERILKELSNLETLY
notes: Rpb4, subunit of RNA polymerase II, S. cerevisiae; detected with antibody 2Y14; source: endogenous, S. cerevisiae (BJ5465 derivatives), in solubilised chromatin fraction
